Data reported in the supplement of paper PMC11246515.
± gives the standard deviation of the averaged measurements.

Test: total protein half-life in vivo (active degradation + dilution); higher = more stable protein
[1] = E. coli NCM3722 delta-clpP delta-lon delta-hslV, growth: N-lim chemostat, doubling time 6 h
[2] = E. coli NCM3722 delta-clpP, growth: N-lim chemostat, doubling time 6 h
[3] = E. coli NCM3722 delta-hslV, growth: N-lim chemostat, doubling time 6 h
[4] = E. coli NCM3722 delta-smpB, growth: N-lim chemostat, doubling time 6 h
[5] = wild type E. coli NCM3722, growth: C-lim chemostat, doubling time 6 h
[6] = wild type E. coli NCM3722, growth: C-lim chemostat, doubling time 12 h
[7] = wild type E. coli NCM3722, growth: N-lim chemostat, doubling time 6 h
[8] = wild type E. coli NCM3722, growth: N-lim chemostat, doubling time 12 h
[9] = wild type E. coli NCM3722, growth: P-lim chemostat, doubling time 6 h
[10] = wild type E. coli NCM3722, growth: P-lim chemostat, doubling time 12 h
[11] = wild type E. coli NCM3722, growth: C-lim chemostat, doubling time 3 h
[12] = E. coli NCM3722 delta-lon, growth: N-lim chemostat, doubling time 6 h

| Sequence | total protein half-life in vivo [1] [h] | total protein half-life in vivo [2] [h] | total protein half-life in vivo [3] [h] | total protein half-life in vivo [4] [h] | total protein half-life in vivo [5] [h] | total protein half-life in vivo [6] [h] | total protein half-life in vivo [7] [h] | total protein half-life in vivo [8] [h] | total protein half-life in vivo [9] [h] | total protein half-life in vivo [10] [h] | total protein half-life in vivo [11] [h] | total protein half-life in vivo [12] [h] |
| --- | --- | --- | --- | --- | --- | --- | --- | --- | --- | --- | --- | --- |
| MKSTSDLFNEIIPLGRLIHMVNQKKDRLLNEYLSPLDITAAQFKVLCSIRCAACITPVELKKVLSVDLGALTRMLDRLVCKGWVERLPNPNDKRGVLVKLTTGGAAICEQCHQLVGQDLHQELTKNLTADEVATLEYLLKKVLP | 4.66 ± 0.39 | 6.71 | > 8 | 4.66 ± 0.12 | 5.68 ± 0.62 | 11.7 ± 2.1 | 4.4 ± 0.066 | 7.75 ± 0.37 | 3.68 | 10.8 | – | – |
| MMSKINQTDIDRLIELVGGRGNIATVSHCITRLRFVLNQPANARPKEIEQLPMVKGCFTNAGQFQVVIGTNVGDYYQALIASTGQAQVDKEQVKKAARHNMKWHEQLISHFAVIFFPLLPALISGGLILGFRNVIGDLPMSNGQTLAQMYPSLQTIYDFLWLIGEAIFFYLPVGICWSAVKKMGGTPILGIVLGVTLVSPQLMNAYLLGQQLPEVWDFGMFSIAKVGYQAQVIPALLAGLALGVIETRLKRIVPDYLYLVVVPVCSLILAVFLAHALIGPFGRMIGDGVAFAVRHLMTGSFAPIGAALFGFLYAPLVITGVHQTTLAIDLQMIQSMGGTPVWPLIALSNIAQGSAVIGIIISSRKHNEREISVPAAISAWLGVTEPAMYGINLKYRFPMLCAMIGSGLAGLLCGLNGVMANGIGVGGLPGILSIQPSYWQVFALAMAIAIIIPIVLTSFIYQRKYRLGTLDIV | – | – | – | 2.51 | 4.23 ± 0.33 | 6.59 ± 0.51 | – | – | 4.13 | 6.92 | 2.85 ± 0.2 | – |
| MPGKIAVEVAYALPEKQYLQRVTLQEGATVEEAIRASGLLELRTDIDLTKNKVGIYSRPAKLSDSVHDGDRVEIYRPLIADPKELRRQRAEKSANK | 5.54 ± 0.24 | 5.02 ± 0.35 | 3.33 | 2.89 ± 0.05 | 5.02 ± 0.71 | 6.3 ± 3.5 | 3.34 ± 0.09 | 5.54 | 5.31 | 8.44 ± 1 | 2.87 | 4.06 |
| MGQVLPLVTRQGDRIAIVSGLRTPFARQATAFHGIPAVDLGKMVVGELLARSEIPAEVIEQLVFGQVVQMPEAPNIAREIVLGTGMNVHTDAYSVSRACATSFQAVANVAESLMAGTIRAGIAGGADSSSVLPIGVSKKLARVLVDVNKARTMSQRLKLFSRLRLRDLMPVPPAVAEYSTGLRMGDTAEQMAKTYGITREQQDALAHRSHQRAAQAWSDGKLKEEVMTAFIPPYKQPLVEDNNIRGNSSLADYAKLRPAFDRKHGTVTAANSTPLTDGAAAVILMTESRAKELGLVPLGYLRSYAFTAIDVWQDMLLGPAWSTPLALERAGLTMSDLTLIDMHEAFAAQTLANIQLLGSERFAREALGRAHATGEVDDSKFNVLGGSIAYGHPFAATGARMITQTLHELRRRGGGFGLVTACAAGGLGAAMVLEAE | – | 5.81 ± 0.29 | 5.7 ± 0.78 | 5.43 ± 0.24 | 6.16 ± 0.1 | 12.3 ± 1.9 | 6.23 ± 0.13 | 12 ± 0.41 | 6.44 ± 0.075 | – | 2.94 ± 0.14 | 6.04 ± 0.061 |
| MCEGYVEKPLYLLIAEWMMAENRWVIAREISIHFDIEHSKAVNTLTYILSEVTEISCEVKMIPNKLEGRGCQCQRLVKVVDIDEQIYARLRNNSREKLVGVRKTPRIPAVPLTELNREQKWQMMLSKSMRR [P0AE58] | 3.96 ± 0.18 | – | – | – | – | – | – | – | – | – | – | – |
| MGTTKHSKLLILGSGPAGYTAAVYAARANLQPVLITGMEKGGQLTTTTEVENWPGDPNDLTGPLLMERMHEHATKFETEIIFDHINKVDLQNRPFRLNGDNGEYTCDALIIATGASARYLGLPSEEAFKGRGVSACATCDGFFYRNQKVAVIGGGNTAVEEALYLSNIASEVHLIHRRDGFRAEKILIKRLMDKVENGNIILHTNRTLEEVTGDQMGVTGVRLRDTQNSDNIESLDVAGLFVAIGHSPNTAIFEGQLELENGYIKVQSGIHGNATQTSIPGVFAAGDVMDHIYRQAITSAGTGCMAALDAERYLDGLADAK [P0A9P4] | 4.04 ± 0.12 | 3.95 ± 0.56 | 3.57 ± 0.13 | 3.71 ± 0.12 | 5.74 ± 0.6 | 10.2 ± 1.8 | 3.8 ± 0.19 | 6.33 ± 0.39 | 5.05 ± 0.65 | 10.7 ± 0.32 | 3.16 ± 0.09 | 3.954 ± 0.035 |
